{
  "source": "paper PMC3871807",
  "about": "“Analysis of rice ER-resident J-proteins reveals diversity and functional differentiation of the ER-resident Hsp70 system in plants” (Journal of Experimental Botany, 2013)",
  "assay_in_all_cases": "co-IP; J-protein-3xFLAG and OsBiP-2HA-6His co-transfected into rice Oc cell protoplasts, overnight at 28 °C; extract in 50 mM TRIS-HCl pH 7.5, 150 mM NaCl, 0.5% Triton X-100; anti-FLAG M2 magnetic beads 2 h at 4 °C; washed with NET buffer (0.1% NP-40); blots with anti-FLAG-HRP and anti-HA-HRP; recovery of BiP-HA over input, relative to BiP1-HA",
  "details_in_all_cases": "partners not purified",
  "key": {"[1]": {"molecular_target": "T1, OsERdj3B-FLAG (rice (Oryza sativa), UniProt B9FHF3 24-347)", "T1 construct": "OsERdj3B, rice ER-resident J-protein of 347 amino acid residues (N-terminal J-domain, zinc finger motif, DnaJ C-terminal domain), encoded by Os05g0156500; full-length coding region; also called Os05g0156500; source: protoplasts from rice Oc cells, transfected by electroporation, in extract; not shown: 3x FLAG, C-terminal, kept", "T1 sequence (looked up)": "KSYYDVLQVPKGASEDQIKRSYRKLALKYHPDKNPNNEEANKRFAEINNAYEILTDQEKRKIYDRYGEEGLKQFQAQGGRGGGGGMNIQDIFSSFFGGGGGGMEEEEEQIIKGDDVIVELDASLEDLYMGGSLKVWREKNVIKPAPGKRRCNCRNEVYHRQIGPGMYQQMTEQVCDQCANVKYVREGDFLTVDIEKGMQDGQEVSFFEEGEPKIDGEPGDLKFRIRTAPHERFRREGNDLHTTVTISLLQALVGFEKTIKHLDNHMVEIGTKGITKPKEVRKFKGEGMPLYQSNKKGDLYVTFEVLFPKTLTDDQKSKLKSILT"}, "[2]": {"molecular_target": "T2, OsP58A-FLAG (rice (Oryza sativa), UniProt A0A0P0VG31 29-476)", "T2 construct": "OsP58A, rice ER-resident J-protein (P58IPK type: two TPR-like regions followed by a J-domain), encoded by Os02g0195300; full-length coding region; also called Os02g0195300; source: protoplasts from rice Oc cells, transfected by electroporation, in extract; not shown: 3x FLAG, C-terminal, kept", "T2 sequence (looked up)": "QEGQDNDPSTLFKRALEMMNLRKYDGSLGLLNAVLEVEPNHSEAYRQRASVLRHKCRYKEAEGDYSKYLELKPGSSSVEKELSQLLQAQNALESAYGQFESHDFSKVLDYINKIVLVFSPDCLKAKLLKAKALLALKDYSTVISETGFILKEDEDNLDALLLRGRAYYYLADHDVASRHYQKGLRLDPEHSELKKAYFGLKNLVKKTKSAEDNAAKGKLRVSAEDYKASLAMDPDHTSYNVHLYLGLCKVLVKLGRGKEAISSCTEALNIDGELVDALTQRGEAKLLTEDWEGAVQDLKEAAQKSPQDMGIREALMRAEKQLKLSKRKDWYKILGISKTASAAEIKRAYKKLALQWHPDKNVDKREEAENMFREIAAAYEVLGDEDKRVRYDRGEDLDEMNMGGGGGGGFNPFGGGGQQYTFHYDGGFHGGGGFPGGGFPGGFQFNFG"}, "[3]": {"molecular_target": "T3, OsERdj3A-FLAG (rice (Oryza sativa), UniProt Q10MW6 26-582)", "T3 construct": "OsERdj3A, rice ER-resident J-protein (N-terminal J-domain followed by a thioredoxin-like region), encoded by Os03g0293000; also called Os03g0293000; source: protoplasts from rice Oc cells, transfected by electroporation, in extract; not shown: 3x FLAG, C-terminal, kept", "T3 sequence (Q10MW6 26-582)": "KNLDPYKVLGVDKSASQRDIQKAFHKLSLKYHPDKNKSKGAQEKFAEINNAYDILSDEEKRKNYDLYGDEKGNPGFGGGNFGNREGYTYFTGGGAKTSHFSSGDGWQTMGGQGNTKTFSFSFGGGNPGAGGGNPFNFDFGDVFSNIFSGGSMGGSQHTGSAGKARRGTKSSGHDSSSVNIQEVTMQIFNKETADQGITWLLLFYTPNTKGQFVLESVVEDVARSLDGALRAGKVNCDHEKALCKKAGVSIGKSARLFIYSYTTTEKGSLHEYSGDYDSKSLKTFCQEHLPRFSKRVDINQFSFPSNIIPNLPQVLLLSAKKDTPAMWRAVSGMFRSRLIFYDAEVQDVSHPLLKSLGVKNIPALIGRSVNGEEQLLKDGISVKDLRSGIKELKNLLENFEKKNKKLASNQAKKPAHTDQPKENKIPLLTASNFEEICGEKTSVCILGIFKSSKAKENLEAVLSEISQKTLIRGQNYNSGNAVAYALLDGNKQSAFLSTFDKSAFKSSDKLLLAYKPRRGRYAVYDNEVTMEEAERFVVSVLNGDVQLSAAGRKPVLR"}},
  "data": [
    {"binder": "OsBiP1-HA (natural protein, full-length cDNA; The coding region was inserted into the Pro35S-ShΔ:2HA-6His vector; source: protoplasts from rice Oc cells, transfected by electroporation, in extract; not shown: 2x HA, C-terminal, kept; His6, C-terminal, kept) not shown", "values": [
      {"measurement": "fold higher affinity than OsBiP3-HA (recovery in co-IP)", "setting": "[1]", "result": "~2", "unit": "fold"},
      {"measurement": "fold higher affinity than OsBiP5-HA (recovery in co-IP)", "setting": "[1]", "result": "~3", "unit": "fold"},
      {"measurement": "fold higher affinity than OsBiP3-HA (recovery in co-IP)", "setting": "[2]", "result": 4, "unit": "fold"}
    ]},
    {"binder": "OsBiP5-HA (natural protein, full-length cDNA; The coding region was inserted into the Pro35S-ShΔ:2HA-6His vector; source: protoplasts from rice Oc cells, transfected by electroporation, in extract; not shown: 2x HA, C-terminal, kept; His6, C-terminal, kept) not shown", "values": [
      {"measurement": "fold higher level than OsBiP1-HA (recovery in co-IP)", "setting": "[3]", "result": 4, "unit": "fold"}
    ]}
  ]
}
